# Reference: the array DNA melting data of Ke et al.
# Assay: melting temperature; melt of duplexes
# Settings: sodium 0.0675 M; strand 1 µM
row,Substance,Tm [°C]
1,CGACGTGCGGCATGTGCTG+CAGCACATTTCGCACGTCG (((((((((..((((((((+))))))))..))))))))),53.4
2,CGACGTGCGGCATGTGCTG+CAGCACATTTTGCACGTCG ((((((((...((((((((+))))))))...)))))))),48.7
3,CGACGTGCGGGATGTGCTG+CAGCACATAACGCACGTCG (((((((((..((((((((+))))))))..))))))))),59.4
4,CGACGTGCGGGATGTGCTG+CAGCACATAAGGCACGTCG ((((((((...((((((((+))))))))...)))))))),51.1
5,CGACGTGCGGGATGTGCTG+CAGCACATACAGCACGTCG ((((((((.(.((((((((+)))))))).).)))))))),56.5
6,CGACGTGCGGGATGTGCTG+CAGCACATACTGCACGTCG ((((((((.(.((((((((+)))))))).).)))))))),56.9
7,CGACGTGCGGGATGTGCTG+CAGCACATATCGCACGTCG (((((((((..((((((((+))))))))..))))))))),56.7
8,CGACGTGCGGGATGTGCTG+CAGCACATATGGCACGTCG ((((((((...((((((((+))))))))...)))))))),50.8
9,CGACGTGCGGGATGTGCTG+CAGCACATATTGCACGTCG ((((((((...((((((((+))))))))...)))))))),51.4
10,CGACGTGCGGGATGTGCTG+CAGCACATCAAGCACGTCG ((((((((..(((((((((+)))))))))..)))))))),57.6
11,CGACGTGCGGGATGTGCTG+CAGCACATCAGGCACGTCG ((((((((..(((((((((+)))))))))..)))))))),56.2
12,CGACGTGCGGGATGTGCTG+CAGCACATCATGCACGTCG ((((((((..(((((((((+)))))))))..)))))))),57
13,CGACGTGCGGGATGTGCTG+CAGCACATCGGGCACGTCG ((((((((..(((((((((+)))))))))..)))))))),56.1
14,CGACGTGCGGGATGTGCTG+CAGCACATCGTGCACGTCG ((((((((..(((((((((+)))))))))..)))))))),56.2
15,CGACGTGCGGGATGTGCTG+CAGCACATCTCGCACGTCG (((((((((.(((((((((+))))))))).))))))))),62.3
16,CGACGTGCGGGATGTGCTG+CAGCACATCTTGCACGTCG ((((((((..(((((((((+)))))))))..)))))))),57.3
17,CGACGTGCGGGATGTGCTG+CAGCACATGAAGCACGTCG ((((((((...((((((((+))))))))...)))))))),53.7
18,CGACGTGCGGGATGTGCTG+CAGCACATGCAGCACGTCG ((((((((.(.((((((((+)))))))).).)))))))),57.2
19,CGACGTGCGGGATGTGCTG+CAGCACATGGCGCACGTCG (((((((((..((((((((+))))))))..))))))))),57.5
20,CGACGTGCGGGATGTGCTG+CAGCACATTAAGCACGTCG ((((((((...((((((((+))))))))...)))))))),53.9
21,CGACGTGCGGGATGTGCTG+CAGCACATTAGGCACGTCG ((((((((...((((((((+))))))))...)))))))),51.9
22,CGACGTGCGGGATGTGCTG+CAGCACATTATGCACGTCG ((((((((...((((((((+))))))))...)))))))),51.8
23,CGACGTGCGGGATGTGCTG+CAGCACATTCCGCACGTCG ((((((((((.((((((((+)))))))).)))))))))),62.8
24,CGACGTGCGGGATGTGCTG+CAGCACATTTGGCACGTCG ((((((((...((((((((+))))))))...)))))))),51.3

row,Substance,Tm [°C]
1,CGACGTGCGGTATGTGCTG+CAGCACATAAGGCACGTCG ((((((((..(((((((((+)))))))))..)))))))),53
2,CGACGTGCGGTATGTGCTG+CAGCACATACAGCACGTCG ((((((((.((((((((((+)))))))))).)))))))),59.5
3,CGACGTGCGGTATGTGCTG+CAGCACATACCGCACGTCG (((((((((((((((((((+))))))))))))))))))),66
4,CGACGTGCGGTATGTGCTG+CAGCACATACGGCACGTCG ((((((((.((((((((((+)))))))))).)))))))),58.5
5,CGACGTGCGGTATGTGCTG+CAGCACATAGAGCACGTCG ((((((((..(((((((((+)))))))))..)))))))),56
6,CGACGTGCGGTATGTGCTG+CAGCACATAGCGCACGTCG (((((((((.(((((((((+))))))))).))))))))),62.5
7,CGACGTGCGGTATGTGCTG+CAGCACATATAGCACGTCG ((((((((..(((((((((+)))))))))..)))))))),56.4
8,CGACGTGCGGTATGTGCTG+CAGCACATATGGCACGTCG ((((((((..(((((((((+)))))))))..)))))))),54
9,CGACGTGCGGTATGTGCTG+CAGCACATCACGCACGTCG (((((((((..((((((((+))))))))..))))))))),56.7
10,CGACGTGCGGTATGTGCTG+CAGCACATCCCGCACGTCG ((((((((((.((((((((+)))))))).)))))))))),59.9
11,CGACGTGCGGTATGTGCTG+CAGCACATCTGGCACGTCG ((((((((...((((((((+))))))))...)))))))),51.6
12,CGACGTGCGGTATGTGCTG+CAGCACATGAAGCACGTCG ((((((((...((((((((+))))))))...)))))))),55.3
13,CGACGTGCGGTATGTGCTG+CAGCACATGCCGCACGTCG ((((((((((.((((((((+)))))))).)))))))))),63.4
14,CGACGTGCGGTATGTGCTG+CAGCACATGCGGCACGTCG ((((((((.(.((((((((+)))))))).).)))))))),55.1
15,CGACGTGCGGTATGTGCTG+CAGCACATGGCGCACGTCG (((((((((..((((((((+))))))))..))))))))),59.9
16,CGACGTGCGGTATGTGCTG+CAGCACATGGTGCACGTCG ((((((((...((((((((+))))))))...)))))))),51.5
17,CGACGTGCGGTATGTGCTG+CAGCACATGTCGCACGTCG (((((((((..((((((((+))))))))..))))))))),57.1
18,CGACGTGCGGTATGTGCTG+CAGCACATTATGCACGTCG ((((((((...((((((((+))))))))...)))))))),51.3
19,CGACGTGCGGTATGTGCTG+CAGCACATTCAGCACGTCG ((((((((.(.((((((((+)))))))).).)))))))),54.2
20,CGACGTGCGGTATGTGCTG+CAGCACATTTAGCACGTCG ((((((((...((((((((+))))))))...)))))))),54.5
21,CGACGTGCGTAATGTGCTG+CAGCACATAAAGCACGTCG ((((((((.(.((((((((+)))))))).).)))))))),55
22,CGACGTGCGTAATGTGCTG+CAGCACATAACGCACGTCG ((((((((((.((((((((+)))))))).)))))))))),59.1
23,CGACGTGCGTAATGTGCTG+CAGCACATACAGCACGTCG ((((((((...((((((((+))))))))...)))))))),54
24,CGACGTGCGTAATGTGCTG+CAGCACATACCGCACGTCG (((((((((..((((((((+))))))))..))))))))),54.2

row,Substance,Tm [°C]
1,CGACGTGCGTAATGTGCTG+CAGCACATACTGCACGTCG ((((((((...((((((((+))))))))...)))))))),52.4
2,CGACGTGCGTAATGTGCTG+CAGCACATAGCGCACGTCG (((((((((..((((((((+))))))))..))))))))),56.1
3,CGACGTGCGTAATGTGCTG+CAGCACATAGGGCACGTCG ((((((((...((((((((+))))))))...)))))))),51.1
4,CGACGTGCGTAATGTGCTG+CAGCACATATCGCACGTCG (((((((((..((((((((+))))))))..))))))))),55.6
5,CGACGTGCGTAATGTGCTG+CAGCACATATTGCACGTCG ((((((((...((((((((+))))))))...)))))))),50.5
6,CGACGTGCGTAATGTGCTG+CAGCACATCACGCACGTCG ((((((((((.((((((((+)))))))).)))))))))),58
7,CGACGTGCGTAATGTGCTG+CAGCACATCCCGCACGTCG (((((((((..((((((((+))))))))..))))))))),53.5
8,CGACGTGCGTAATGTGCTG+CAGCACATCGAGCACGTCG ((((((((...((((((((+))))))))...)))))))),53.1
9,CGACGTGCGTAATGTGCTG+CAGCACATCGTGCACGTCG ((((((((...((((((((+))))))))...)))))))),44.3
10,CGACGTGCGTAATGTGCTG+CAGCACATCTTGCACGTCG ((((((((...((((((((+))))))))...)))))))),49.7
11,CGACGTGCGTAATGTGCTG+CAGCACATGACGCACGTCG ((((((((((.((((((((+)))))))).)))))))))),58
12,CGACGTGCGTAATGTGCTG+CAGCACATGAGGCACGTCG ((((((((.(.((((((((+)))))))).).)))))))),53.6
13,CGACGTGCGTAATGTGCTG+CAGCACATGGAGCACGTCG ((((((((...((((((((+))))))))...)))))))),60.7
14,CGACGTGCGTAATGTGCTG+CAGCACATGTCGCACGTCG (((((((((..((((((((+))))))))..))))))))),56
15,CGACGTGCGTAATGTGCTG+CAGCACATGTGGCACGTCG ((((((((...((((((((+))))))))...)))))))),51.8
16,CGACGTGCGTAATGTGCTG+CAGCACATGTTGCACGTCG ((((((((...((((((((+))))))))...)))))))),51.7
17,CGACGTGCGTAATGTGCTG+CAGCACATTCAGCACGTCG ((((((((..(((((((((+)))))))))..)))))))),54.7
18,CGACGTGCGTAATGTGCTG+CAGCACATTCTGCACGTCG ((((((((..(((((((((+)))))))))..)))))))),53.4
19,CGACGTGCGTAATGTGCTG+CAGCACATTGAGCACGTCG ((((((((..(((((((((+)))))))))..)))))))),56.6
20,CGACGTGCGTAATGTGCTG+CAGCACATTGCGCACGTCG (((((((((.(((((((((+))))))))).))))))))),60.3
21,CGACGTGCGTAATGTGCTG+CAGCACATTGGGCACGTCG ((((((((..(((((((((+)))))))))..)))))))),55
22,CGACGTGCGTAATGTGCTG+CAGCACATTGTGCACGTCG ((((((((..(((((((((+)))))))))..)))))))),52
23,CGACGTGCGTAATGTGCTG+CAGCACATTTTGCACGTCG ((((((((..(((((((((+)))))))))..)))))))),54.4
24,CGACGTGCGTCATGTGCTG+CAGCACATAATGCACGTCG ((((((((.(.((((((((+)))))))).).)))))))),52.2
